From paper PMC10421103, “Efficiency Assessment between Entrapment and Covalent Bond Immobilization of Mutant β-Xylosidase onto Chitosan Support” (Polymers, 2023)

Substrate: O=[N+]([O-])c1ccc(O[C@@H]2OC[C@@H](O)[C@H](O)[C@H]2O)cc1
Assay: purified protein
Type: biochemical, Geobacillus stearothermophilus
Conditions: free enzyme, partially purified, 200 mM citrate-phosphate-glycine buffer pH 6.5, 50 °C, 0.22–2.00 mM substrate

B1: XynB2^Y509E (Geobacillus stearothermophilus; Y509E) (protein)
chain: MATNLFFNAHHSPVGAFASFTLGFPGKSGGLDLELARPPRQNVFIGVESPHEPGLYHILPFAETAGEDESKRYDIENPDPNPQKPNILIPFAKERIEREFRVATDTWKAGDLTLTIYSPVKAVPDPETASEEELKLALVPAVIVEMTIDNTNGTRTRRAFFGFEGTDPYTSMRRIDDTCPQLRGVGQGRILGIASKDEGVRSALHFSMEDILTATLEENWTFGLGKVGALIADVPAGEKKTYQFAVCFYRGGCVTAGMDASYFYTRFFHNIEEVGLYALEQAEVLKEQAFRSNELIEKEWLSDDQKFMMAHAIRSYYGNTQLLEHEGKPIWVVNEGEYRMMNTFDLTVDQLFFELKMNPWTVKNVLDFYVERYSYEDRVRFPGDETEYPGGISFTHDMGVANTFSRPHYSSYELYGISGCFSHMTHEQLVNWVLCAAVYIEQTKDWAWRDRRLTILEQCLESMVRRDHPDPEKRNGVMGLDSTRTMGGAEITTYDSLDVSLGQARNNLELAGKCWAAYVALEKLFRDVGKEELAALAREQAEKCAATIVSHVTEDGYIPAVMGEGNDSKIIPAIEGLVFPYFTNCHEALREDGRFGDYIRALRQHLQYVLREGICLFPDGGWKISSTSNNSWLSKIYLCQFIARRILGWEWDEQGKRADAAHVAWLTHPTLSIWSWSDQIIAGEISGSKYYPRGVTSILWLEEGE
notes: recombinant in E. coli C43 from plasmid pJAVI100 (xynB2 with Y509E); partially purified by heat treatment 45 °C and dialysis; GH52
For B1, which Km is on record?
The Km was 900 ± 100 µM.

And the Vmax?
The Vmax was 0.0011 µmol/min.
